Experimental data: US20120014911

Key:
[1] = target: T1, GST-IFNAR1 (wild type): bacterially expressed cytoplasmic domain of IFNAR1 fused with GST (UniProt P17181)
T1 sequence: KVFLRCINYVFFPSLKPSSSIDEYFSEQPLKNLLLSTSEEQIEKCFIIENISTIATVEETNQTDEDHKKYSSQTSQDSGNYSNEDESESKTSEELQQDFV

[2] = target: T2, recombinant PKD2 used as substrate of Tyk2 and Src (UniProt Q9BZL6)
T2 sequence: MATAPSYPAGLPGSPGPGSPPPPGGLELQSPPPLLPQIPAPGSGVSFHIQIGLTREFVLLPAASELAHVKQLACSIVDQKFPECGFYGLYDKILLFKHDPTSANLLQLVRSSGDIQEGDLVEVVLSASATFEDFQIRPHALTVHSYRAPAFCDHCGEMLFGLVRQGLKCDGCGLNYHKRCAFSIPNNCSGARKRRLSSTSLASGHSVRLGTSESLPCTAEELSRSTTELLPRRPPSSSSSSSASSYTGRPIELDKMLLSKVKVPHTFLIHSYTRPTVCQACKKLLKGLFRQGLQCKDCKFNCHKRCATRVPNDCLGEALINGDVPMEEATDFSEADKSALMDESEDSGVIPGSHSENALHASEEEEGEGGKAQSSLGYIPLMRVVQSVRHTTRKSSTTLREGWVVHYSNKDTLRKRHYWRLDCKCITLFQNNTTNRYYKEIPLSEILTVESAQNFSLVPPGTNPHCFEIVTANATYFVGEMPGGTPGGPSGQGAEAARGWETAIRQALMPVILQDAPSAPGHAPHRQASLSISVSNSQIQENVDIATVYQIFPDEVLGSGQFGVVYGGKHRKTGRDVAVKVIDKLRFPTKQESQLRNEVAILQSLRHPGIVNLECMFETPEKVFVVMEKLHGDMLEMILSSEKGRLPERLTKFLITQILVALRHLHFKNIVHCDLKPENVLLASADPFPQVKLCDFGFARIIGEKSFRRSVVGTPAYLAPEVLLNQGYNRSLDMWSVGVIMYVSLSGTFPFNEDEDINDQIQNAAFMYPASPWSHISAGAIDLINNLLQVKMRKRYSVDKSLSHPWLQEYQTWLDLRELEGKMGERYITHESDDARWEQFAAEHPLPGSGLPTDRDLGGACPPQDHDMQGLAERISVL

[3] = tested on: purified recombinant Nrf2-Neh2 domain T80A
[4] = tested on: purified recombinant Nrf2-Neh2 domain S40A
[5] = tested on: purified recombinant Nrf2-Neh2 domain (wild type)

Substance: GST-tagged PKD2 kinase-dead K580N mutant
- in vitro phosphorylation of GST-IFNAR1 on Ser535 (immunoblot with anti-pS535) [1]: Ser535 phosphorylation on GST-IFNAR1 incubated with ATP and GST-PKD2 was not evident when a catalytically deficient (kinase-dead, KD) K580N mutant was used in the reaction

Substance: HA-tagged Leishmania major CK1 (L-CK1) immunopurified from 293T cells
- immunokinase assay: phosphorylation of GST-IFNAR1 on Ser535 [1]: immunopurified human CK18, CK1E, and protozoan parasite L-CK1 were active against IFNAR1S535 in the immunokinase assay in vitro

Substance: HA-tagged Tyk2 immunopurified from cells
- in vitro tyrosine phosphorylation of PKD2 (immunoblot with anti-phospho-Tyr antibody) [2]: A robust increase in Tyr phosphorylation of PKD2 was seen when HA-Tyk2 was purified from IFN-a-treated cells

Substance: Myc-tagged human CK1δ immunopurified from 293T cells
- immunokinase assay: phosphorylation of GST-IFNAR1 on Ser535 [1]: immunopurified human CK18, CK1E, and protozoan parasite L-CK1 were active against IFNAR1S535 in the immunokinase assay in vitro

Substance: bacterially produced recombinant GST-CK1α
- in vitro phosphorylation of GST-IFNAR1 on Ser535 and Ser532 (immunoblot with phospho-specific antibodies) [1]: Incubation of recombinant CKla with wild type GST-IFNAR1 substrate and ATP in vitro resulted in phosphorylation of Ser535 but not of Ser532

Substance: recombinant Src (purchased from Cell Signaling)
- in vitro tyrosine phosphorylation of PKD2 (immunoblot with anti-phospho-Tyr antibody) [2]: tyrosine phosphorylation of PKD2 was easily detected when recombinant Sre protein was used as positive control

Substance: recombinant bacterially produced constitutively active ΔN-PERK
- in vitro kinase assay, autoradiography [3]: mutation of threonine 80 to alanine abrogated phosphorylation
- in vitro kinase assay, autoradiography [4]: Purified recombinant PERK phosphorylated wild type Nrf2-Neh2 and a serine 40 to alanine mutant; however, mutation of threonine 80 to alanine abrogated phosphorylation
- in vitro kinase assay [1]: activated PERK was not capable of phosphorylating IFNAR1 in vitro
- in vitro kinase assay, autoradiography [5]: Purified recombinant PERK phosphorylated wild type Nrf2-Neh2 and a serine 40 to alanine mutant; however, mutation of threonine 80 to alanine abrogated phosphorylation
